Data on three substances can be found in article PMC12298772.

Values joined by “and” are separate entries in the source; they are usually repeats but may differ in a detail not shown here. Equal values may be shown once. Bounds are passed on as bounds.

What is called stoichiometry N is a count of units in the complex or per binding partner.

Common to all, as to assay: Number and Brightness (N&B) fluorescence fluctuation microscopy
The target of test [1] is PUUV YFP-NP (Puumala orthohantavirus nucleoprotein labelled with yellow fluorescent protein) (Puumala orthohantavirus (PUUV), strain Sotkamo/V-2969/81) (UniProt P27313).
Test [2] has as its target PUUV SP-mCh2-Gn (Puumala orthohantavirus glycoprotein Gn labelled with mCherry2) (Puumala orthohantavirus (PUUV), strain Sotkamo/V-2969/81).
The target in test [3] is PUUV SP-mCh2-Gc (Puumala orthohantavirus glycoprotein Gc labelled with mCherry2) (Puumala orthohantavirus (PUUV), strain Sotkamo/V-2969/81).

With “PUUV YFP-NP (Puumala orthohantavirus nucleoprotein labelled with yellow fluorescent protein) (from UniProt P27313 1-433) (natural protein)”, in test [1], the stoichiometry N was < 10 and 4 and 8.
Turning to “PUUV SP-mCh2-Gn (Puumala orthohantavirus glycoprotein Gn labelled with mCherry2) (natural protein)”, the stoichiometry N in test [2] is under 4.
Consider “PUUV SP-mCh2-Gc (Puumala orthohantavirus glycoprotein Gc labelled with mCherry2) (natural protein)”, for which the stoichiometry N in test [3] is under 8.
